Assay results as given in IntAct's records for PubMed 18940604.

B1: Ras-related protein Rab-27A (Mus musculus), Q9ERI2 (parent)
chain: MSDGDYDYLIKFLALGDSGVGKTSVLYQYTDGKFNSKFITTVGIDFREKRVVYRANGPDGAVGRGQRIHLQLWDTAGQERFRSLTTAFFRDAMGFLLLFDLTNEQSFLNVRNWISQLQMHAYCENPDIVLCGNKSDLEDQRAVKEEEARELAEKYGIPYFETSAANGTNISHAIEMLLDLIMKRMERCVDKSWIPEGVVRSNGHTSADQLSEEKEKGLCGC
partner: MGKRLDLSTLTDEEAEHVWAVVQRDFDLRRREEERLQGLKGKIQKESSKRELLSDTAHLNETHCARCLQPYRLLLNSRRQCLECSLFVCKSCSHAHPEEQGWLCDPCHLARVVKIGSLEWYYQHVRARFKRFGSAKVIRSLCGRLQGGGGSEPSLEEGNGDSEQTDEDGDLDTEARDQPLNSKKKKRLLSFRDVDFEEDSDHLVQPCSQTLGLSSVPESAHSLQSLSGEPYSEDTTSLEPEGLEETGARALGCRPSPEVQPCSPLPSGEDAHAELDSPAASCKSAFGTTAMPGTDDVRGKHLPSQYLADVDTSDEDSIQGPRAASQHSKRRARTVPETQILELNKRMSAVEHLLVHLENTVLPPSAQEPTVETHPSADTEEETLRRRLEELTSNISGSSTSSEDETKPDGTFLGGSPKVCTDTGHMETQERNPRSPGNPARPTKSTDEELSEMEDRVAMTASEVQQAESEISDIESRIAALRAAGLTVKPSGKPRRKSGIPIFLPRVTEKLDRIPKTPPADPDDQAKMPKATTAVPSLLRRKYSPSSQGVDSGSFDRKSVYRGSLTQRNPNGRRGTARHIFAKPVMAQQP
B2: Ras-related protein Rab-3A (Mus musculus), P63011 (parent)
chain: MASATDSRYGQKESSDQNFDYMFKILIIGNSSVGKTSFLFRYADDSFTPAFVSTVGIDFKVKTIYRNDKRIKLQIWDTAGQERYRTITTAYYRGAMGFILMYDITNEESFNAVQDWSTQIKTYSWDNAQVLLVGNKCDMEDERVVSSERGRQLADHLGFEFFEASAKDNINVKQTFERLVDVICEKMSESLDTADPAVTGAKQGPQLTDQQAPPHQDCAC
partner: B1 partner

Variants of: B1
Details: with melph_mouse Mlph

Effect of a mutation on the interaction, disrupting interaction:
Y6F
Y6F;L84I;F88Y;D91G

Variants of: B2
Details: with melph_mouse Mlph

Effect of a mutation on the interaction, disrupting interaction:
F19Y
G94D
F19Y;G94D
I87L;Y91F;G94D
